We go through 47 sequences from the NTF2 design screens of Basanta et al. (2020).

The series can be described thus: protease stability score; higher = more stable; yeast display proteolysis, trypsin and chymotrypsin.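 Note: log10 excess protease needed over predicted unfolded state with 0 meaning unfolded.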
With “DDHNVRVMREIQKAIEKNDEKRFKELVDPNVRVRIGDNLIHGRDNVAKELKREMDHMRKNIRSMSIDDEGDHVVINIEYEQNENGHPDTNRVQVSAELHNGKLKEMHISSRQ”, the protease stability score came to 1.02.
Under “DDHRAHQMAEFVIDAIRTGDPDKFVNQADENVRVVIGDKQVQGHEEAREALKSLKDQADHVSLTDFRVHGDKVEVVFEARVNGVDLVMKVYARIHNGHLVMMSIDVTDPRKQKKADS” stands 1.11; under “DDHRAKQAVKAWTDNNPDNLRELFDKNVRVEIGEFTLHGREDAQSMVQRLHSRADHVEYKDIKVSNGRINIDVVYMVDGHRVRATIHLTIENGRLKSMEVRFTSEEDQKKAKRAFE”, 0.09; under “DDHREEQMNRVAETGNFKHLASQLDKDATAFYGDKTVEGREHIQENLNRLHSHIDHIEYKKVEVKNGKVDVDFTAVINGTTFRAQMRLVVHNGRIKTISMRARDEKDKKLIHEWLS”, 0.83.
“DDHSSARKFADEFREMMKTGDSTKADELFDPNVRVEVGDKRYHGREQAVDWIRHLVDRYDHIEIRIDHITVRGDRISIVFTVHYEKNGETTYDRYVMVAVDRNGRAQIKMLRKG” yielded a protease stability score of 2.51.
Under “DDHVLREVMKSWKDNDWKTLQDQVDPNARMKVGDNKVSGREQIEDLLQHLQDRIDHVEIKSMQHQGDKANFRFQFVVNGQRVDVVARVKAHNGKIQEWQVEVRNDELKEQLERAQK” stands 0.628; under “DDHVNREINRLMEKNDEQKFVDQADENASMDVGNKRYHGRDAAIKAARAWRKAADHVRIKRFEYSNGKIIIVVVVQFNGHRYDVTIDIVHHNGKVKEFVVRFTDPEQERDFRDWLG”, 0.509; under “DDKAADDARRALEQLNTGNEERAATYMDPNVSVRIGDKSVHGREEIQRSEERKRRRLEVQYKDYRVSVENGEFTASYDYTNHHNGRPQRVKVEVHISADNGKIKSVQQHEDK”, 0.213.
For “DDKDADHVQRALRNLERGDPEKADTMFDPNAHVRIGDKEIHGREQLNHWVERVHTEMRQRWDFKDVNEHENHVQIDVSITTEKNGQPRSKHVKLNARVNNGTVTSVEQQDDG”, the protease stability score was -0.164.
Under “DDKDAKRLLTLWHQIEEGNPEEVQKMMDENVHVSIGDKEVHGREEDARQRKEEVDSMRVSLKIDHYSDNNGRIVVDATQENETNGKPSTKRFVIEARMDNGTLKRLQIEDDK” stands 0.097; under “DDKDIQEIAHEINHAWEEGDSKRFADLLSENARVDVGDKDYEGREFNKKWMKDIRDRVDHLEIDHVSAKGNTVEVTMVMNINGRNATVVVEYTFHNGQVRHAQLKFTSEEDKRKFHG”, 0.453.
The result for “DDKDLKDVAEKVMHAVQNGDPHEARKMFDKDARIIVGDTEVHGRSNIMHLMTEFRKRVDHAEIKDLTVNGEDVRIDMVLDINGKKHRRTWEVRVSNGRARHAHLDPKDLERQSK” reads 0.481; that for “DDKDLRRVADVMETNDPDRLADLVDENARFIYGDKTYKGEKEATKVWETLYHQVDHKQIHTWDVRGDKLSVKMEMVVNGHDIQVHVRVDVRNGRIKQVELRATNEDDQRFIKRIWG”, 0.218.
As to “DDKDMEQIKRLIEQLLTGDPDSAKRNFDENARVTIGDKTIEGRDDMRRWVDTVHKHAQLEITHMTVKVHGDKVKVNMDARRTHNGRPERATFKMDVELQNGKVKNQSIEIRK”, the protease stability score was determined as 0.223.
Under “DDKDQHEEVEKFARNVVSGNSDELRKQMDKDVRANVGDKTLRGREEVADFWKHMRDRIDHAEIKEIRFHNGEARIVMQFVHNGRTKQINIVMEFHDGHVKRLRVEDG” stands 2.73; under “DDKDRRRVAEEVVRAFVQNDPDRLVELADEDARVHYGDRELHGREKARHMLRKFKEQVDTATYQDFNVHGDKVDIKLTAHFNGRTHTQTVIVVIHNGRIKFIEIRSS”, 1.22.
The result for “DDKDVEKAVRVMQTNDPDKYERMLDEDVSMVVGDQTYHGRETVNKVYKHYLERVDHIKITRYTIRNGVATVRYVVEWNGKSADVVVHVEVHNGRAKRFEYDVRDSEDKKNMEEMIK” reads 0.358.
Regarding “DDKEAHKRARQLVRIVQTGNESDVRKLFDKNARVVIGDKTFHGRENVQKAVREMRERVDHVQVHRVRAQGNKVRALVQYDINGKQEHYNFDMTFHNGRAKSMVVKES”, the protease stability score was 0.812.
The result for “DDKEARKFAKDYVDAMKTGDEKRIEEMVDPNVSFQIGDQTYHGREQLKQALRSRRHHADHVQVDHVEAQGDKIDIDVQFNINGRDDKVKIKIRVHNGRIKEVVIEKK” reads 0.99; that for “DDKEEAESIAKTLQKILDTGNEEDYLNMADEDVEINIGDKHYRGREEFLKWVQKMTRQVDHLRIDVKSVEVSGDKAHIQYHLELNHDGKNETHKLVMVARKSNGRLTIKKITHQ”, 1.19; that for “DDKEKAEKFLTKWVEAIKTGNEEQLNELADPNVRFKYGDRVIHGREQQAKHNKELRERADRMEFRVDDVDIRPGKVVVHARYTVNINGKEETHQYTATADVKNGRLQITEQQNS”, -0.092.
Regarding “DDKERDHLRKLMEEGDFTEIAENADPNAKFVIGDKEIHGREQFQTVAKRRQERVDHFDVKRVSVSGNKVRATMVMVVDGEKIHFTVIIEIDNGRVKSVRLQYRDETVKRQIEEAMS”, the protease stability score is -0.213.
As for “DDKEVRRNAEIALKALRTGDEDDAMEQADEDAKMVIGDKEVHGREKLREAVKDFKEEADHVQVRHFEVQNGRVNAEMEVDVNGQKQIYVMHVEVHNGKIKEINIQHK”, the protease stability score is 0.787.
Under “DDKHAEEVAELMTRNNFKQLAHQADPNVKIVVGEKKWHGREQMRTFMKILTKRVDHLNIQSYDVDNGRVKIDYVVNIDGQEIHVRVEIEFKNGRIQRYVLRATSDENQKELNKALS” stands 0.08; under “DDKHIQTQAERIAKALQTGDPDKFKNEMRKDVQVDVGDKRLHGREEVAKWMEDKHKRADRITYDSVEASGDKITMTVVIQINGRKKHFQFEATQSNGKIVHARERDQ”, -0.393; under “DDKHKVEQLLRRADDALRTNDERKYIEMVDKDVRITVGDKQIHGKDEAVKFLRTLHNTYDHVQIRVESIENDGEKFKVIVQITAKHNGKETSHTLSFDAQRHNGQVRVKHASMG”, 1.21.
Under “DDKKAQDFARKFADNLRTGNERQWEKMFDENVRIKYGDKTLHGREVARKEARTFHEQVDHMEVRSITAQGNQLVIMFEVKHNGRTDRMVWRAKVENGKIQHQTVTSQ” stands -0.084; under “DDKKQQNMAKHFADAIRRGDPKTFSDLADPNVTAQYGDKSIHGKDEMREFWKQYHDRVDSVDVEKFSVRGDKIDIKMRAVVDGKDRVLDLDIQLHNGRATHIKVNPDQVREMDK”, 1.38; under “DDKKRVTQVFREWREALQTGNEEELHKQADKDVKFDVGESEFHGREKFVKHVQERLTQVDHLDIKMHSLKVDNGKADVSVIYRQNHNGKEDETTAVIIMTLSNGHAKIDTVKYG”, -0.195.
Turning to “DDKKVHKAANRFVEMFRTGNPDDLHKQIDKDAHATVGDKTYRGRTHVVRQIIEMVERVDHVEVKSISVDGDHAKIDMVLRHDGQEERVDVVMRVHNGRFKSIEFQEQ”, the protease stability score is 0.512.
In the case of “DDKKVRLARSWMQNVRENNEERLQKLIDPNAKVRIGNKVVNGDEEFRRQVKHRKEHMRLDVEIESMTFQGDHVSATYVFRQNVNGTPYSDRVEVHIKMENGRIKHIDARVPEEKLRELSS”, the protease stability score is -0.106.
“DDKNRELLTEVLKARETGDPDRIHELLDPNVKVKVGNKTLRGRNEIAKWWKRQTDEMRIEESITHIDVHNGKARMEASARVEINGRPVTYTFIMKAVIHNGRVKEINIHIPEEKMQEVTQ” came in with a protease stability score of 0.948.
The result for “DDKQAKELVKLMHTGDWETLINNMDPNARVVIGNKTYHGRHDAQKLLELWQKRVDHQDIHDVKARGDQLQVNMVFVINGVKFELVITVKFHNGRIESVQYDVTDRDQERKLEDLMS” reads 1.67; that for “DDKQLDERVKEIQEVIRDNDPDSMKHLMDPNARMFVGDKEFHGRDEIVRHLKDLWHRVDHFHIKDFRASGNRAVVIAVFHVNGVTAHFKIFVVFQNGRIKQLRIKWRNEDEERRVRS”, 0.674.
Under “DDKQQMEEMLQKYQEALDTGDPEKLASLFDENAEVRIGDKVYRGHEDIKRAAKHLLDNVDHIEIRLRSLETRPGRIHARLQMNVRHNGKNTTKTLHVVARKQGDEFVVEHMEVE” stands 2.07; under “DDKRKADEFAKELVKAVQTGDSDNIRKLLDPNARINVGEKHYQGKDSMAKIMVRIAEDVDHISARVISVRDHNGSAVIHIEVQNNHNGRNSRTRVILHLTDHNGRIKLRERREG”, 0.749; under “DDKTIKENLKVFNRGNPDDMKTLMDKDVRLEVGEKSVHGREQAQTWQDRYERQVDHRRVKSYSMNGNNVVADMVVQVNGREYEVRLEVHVHNGRIKVLRLEVRDEDDRRNLKRLLS”, 0.211.
Under “DDNEVETVRELIEQLETGDPDKFKEMVDKDVNINVGNKHVHGREEAVEQIRKEAREISFRIKVDRVEAHNGHVRVDFKFDAEVNGQPRSFRAIMVLEIEDGVVKHIELQMDRNQQQRLEK” stands 1.1; under “DDNLNRKVKKFWKVLQKGNPHEAKKYFDPNAHIVIGDQRIHGMDKFNRRMEHMKSHIRVQIDTLRMQDNGSQVDVTFEAVFNHNGRPKRYRARVRFEVHNGKAKSLTLKEDQ”, 0.265.
“DDNLRKHVDNLIKLLQDGNPQELVNMADPNARVTIGDEQVHGREQLHEDWHRQAKEMRIQWDHYRVDAQGDKVRVNATRTLQTNGKPDSERFHVEMRLQGDKLQTERVDVHK” gave a protease stability score of -0.265.
“DDQAKRIVDEILTNMRTGDEDKLKTLIDPNARARVGEKEVHGWDDALKEIADKLRDIRIQIDRFSVKVTGDKVKIDFTAQNEHNGQPSTKKYERNYKIKNGRVKHFEDVSTQ” came in with a protease stability score of -0.192.
The result for “DDQALRLLEEWLKAVQEGDQERAHEMADPNAKFEVGDKTINGMDDVNEQIRRDTESMRYQVQNVHSITRPNHVQADVQFENEHNGNPDTNRMVIQARATNGRIQSLRIQDKK” reads 0.058; that for “DDQDIRHILDQWRTGDFDQVRNQADENANIVYGDKRYHGREQLQEWMKTLKEQIDHFHIRSITQKGDKARFEAEADVNGVDVKFSVVISVHNGRVKFFEFQWTSEELLERIKHEIG”, 0.942; that for “DDQDLAKRLLDQLTKALQHGDERQLQRLMDKDVRVHIGDKNIHGREQAATFWVHLRKHVDRLSVRVKHVDIQGERVVFDMVFVFNHNGRQEHVRVVIVAKKDGDKIRIKRASQN”, 2.16.
The result for “DDQDRSHAVRLMRTGNFKEWADQADKDVSMQVGDKEVRGREQVIKMLKRLQEAADHVQVKSIHTQGEKMKADVTININGDQIRVIIEVVVEGDKLKELRIQFTSEHDEKIMHEQLQ” reads 1.14; that for “DDQEDAEKAARRFNKIVNENNFDDLLNQFDPNARIQVGDKQYHGRSEISKFMQKWKRQIDHLEAHLKDVKVDNGRIDVKFKFQFHKNGTRVDRDMSLDARRQGDQINIQELHLG”, 0.198; that for “DDQEERDWNERMKQVLRTGDEHRLEQLMDENVRMRVGDSVVTGREKVRQVFHELMKQADKIEVKSVSAQGNEVLIRFVLNHNGKNDDVVIEVRVHNGRIKEIVIRSK”, -0.001.
